Patent US20220073922

Legend:
[1] = target: T1, VEGF-121 (VEGFA isoform 121) (Homo sapiens) (UniProt P15692); test: flow; settings: 2'-F all nucleotides
T1 sequence: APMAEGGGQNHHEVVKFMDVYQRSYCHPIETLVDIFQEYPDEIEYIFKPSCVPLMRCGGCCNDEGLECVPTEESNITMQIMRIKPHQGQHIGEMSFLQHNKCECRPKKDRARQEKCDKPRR

[2] = target: T2, Angiopoietin-2 (Ang2) (Homo sapiens) (UniProt O15123); test: flow; settings: 2'-F all nucleotides
T2 sequence: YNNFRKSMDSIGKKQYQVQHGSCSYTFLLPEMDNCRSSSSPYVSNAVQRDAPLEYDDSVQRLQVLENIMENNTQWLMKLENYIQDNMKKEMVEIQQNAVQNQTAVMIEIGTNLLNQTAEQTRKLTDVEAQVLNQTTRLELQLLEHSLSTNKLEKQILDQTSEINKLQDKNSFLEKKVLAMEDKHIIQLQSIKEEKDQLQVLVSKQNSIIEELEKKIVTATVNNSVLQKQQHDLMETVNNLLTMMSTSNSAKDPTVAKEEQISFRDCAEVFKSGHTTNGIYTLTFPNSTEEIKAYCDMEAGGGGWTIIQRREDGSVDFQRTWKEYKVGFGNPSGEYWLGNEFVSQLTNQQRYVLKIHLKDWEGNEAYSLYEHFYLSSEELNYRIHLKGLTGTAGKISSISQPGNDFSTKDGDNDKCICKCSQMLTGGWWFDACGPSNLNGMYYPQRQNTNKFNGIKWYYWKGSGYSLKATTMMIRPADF

[3] = tested on: T3, VEGF (isoform not given) (Homo sapiens), P15692-9; test: competition; settings: 2'-F all positions; blocks VEGF-VEGFR2; isoform not stated
T3 sequence: T1 sequence

[4] = 6 hexaethylene glycol linkers between aptamers [2'-F at all nucleotides 1-86, 6 hexaethylene glycol linkers (HHHHHH) between 38 and 39 left out]
[5] = 5 hexaethylene glycol linkers between aptamers [2'-F at all nucleotides 1-86, 5 hexaethylene glycol linkers (HHHHH) between 38 and 39 left out]
[6] = 1 hexaethylene glycol linker between aptamers [2'-F at all nucleotides 1-86, 1 hexaethylene glycol linker (H) between 38 and 39 left out]
[7] = 3 hexaethylene glycol linkers between aptamers [2'-F at all nucleotides 1-86, 3 hexaethylene glycol linkers (HHH) between 38 and 39 left out]
[8] = 2 hexaethylene glycol linkers between aptamers [2'-F at all nucleotides 1-86, 2 hexaethylene glycol linkers (HH) between 38 and 39 left out]
[9] = 4 hexaethylene glycol linkers between aptamers [2'-F at all nucleotides 1-86, 4 hexaethylene glycol linkers (HHHH) between 38 and 39 left out]

“CGCUAGAUGGCUAACACUAUUGUGGAGAUGCACUAGCGCGCAUAGAUAAGCCAACAAACGUACAUUCUCUGUUAGUAUUUUCUGCG [AMSB103.6]” was tested, and the Kd [1, 4] was 39 pM and the Kd [2, 4] was 34 pM.
With “CGCUAGAUGGCUAACACUAUUGUGGAGAUGCACUAGCGCGCAUAGAUAAGCCAACAAACGUACAUUCUCUGUUAGUAUUUUCUGCG [AMSB103.5]” the Kd [1, 5] was 38 pM and the Kd [2, 5] was 27 pM.
Sequence “CGCUAGAUGGCUAACACUAUUGUGGAGAUGCACUAGCGCGCAUAGAUAAGCCAACAAACGUACAUUCUCUGUUAGUAUUUUCUGCG [AMSB103.1]” has a Kd [1, 6] of 41 pM and a Kd [2, 6] of 26 pM.
For “CGCAUAGAUAAGCCAACAAACAUUCUCUGUUAGUAUUUUCUGCG [AMS0525.8]”, the Kd ([2]; one internal hexaethylene glycol linker (H) [2'-F at 1-44, hexaethylene glycol linker H (left out) between C21 and A22], PBSMCT, 37 C) was 85 pM.
For “CGCUAGAUGGCUAACACUAUUGUGGAGAUGCACUAGCGCGCAUAGAUAAGCCAACAAACGUACAUUCUCUGUUAGUAUUUUCUGCG [AMSB103.3]”, the Kd [1, 7] was 36 pM and the Kd [2, 7] was 31 pM.
Work on “CGCUAGAUGGCUAACACUAUUGUGGAGAUGCACUAGCGCGCAUAGAUAAGCCAACAAACGUACAUUCUCUGUUAGUAUUUUCUGCG [AMSB103.2]” yielded a Kd [1, 8] of 38 pM and a Kd [2, 8] of 34 pM.
For “CGCUAGAUGGCUAACACUAUUGUGGAGAUGCACUAGCGCGCAUAGAUAAGCCAACAAACGUACAUUCUCUGUUAGUAUUUUCUGCG [AMSB103]”, the IC50 [3] was less than 100 pM.
For “CGCAUAGAUAAGCCAACAAAUUCUCUGUUAGUAUUUUCUGCG [AMS0525.7]”, the Kd ([2]; one internal hexaethylene glycol linker (H) [2'-F at 1-42, hexaethylene glycol linker H (left out) between A20 and U21], PBSMCT, 37 C) was 93 pM.
For “CGCUAGAUGGCUAACACUAUUGUGGAGAUGCACUAGCGCGCAUAGAUAAGCCAACAAACGUACAUUCUCUGUUAGUAUUUUCUGCG [AMSB103.4]”, the Kd [1, 9] was 41 pM and the Kd [2, 9] was 32 pM.
